Source: US20030207446A1 (US Dept. of Health and Human Services, published 2003)

B1: BPV E2 protein (full-length 48 kD form) (other)
chain: METACERLHVAQETQMQLIEKSSDKLQDHILYWTAVRTENTLLYAARKKGVTVLGHCRVPHSVVCQERAKQAIEMQLSLQELSKTEFGDEPWSLLDTSWDRYMSEPKRCFKKGARVVEVEFDGNASNTNWYTVYSNLYMRTEDGWQLAKAGADGTGLYYCTMAGAGRIYYSRFGDEAARFSTTGHYSVRDQDRVYAGVSSTSSDFRDRPDGVWVASEGPEGDPAGKEAEPAQPVSSLLGSPACGPIRAGLGWVRDGPRSHPYNFPAGSGGSILRSSSTPVQGTVPVDLASRQEEEEQSPDSTEEEPVTLPRRTTNDGFHLLKAGGSCFALISGTANQVKCYRFRVKKNHRHRYENCTTTWFTVADNGAERQGQAQILITFGSPSQRQDFLKHVPLPPGMNISGFTASLDF
notes: mature; BPHE-1 cells express three forms of E2; SFV-E2 gives only the 48 kD form
B2: bovine papillomavirus type 1 (BPV1) L2 minor capsid protein (other)
chain: MSARKRVKRASAYDLYRTCKQAGTCPPDVIPKVEGDTIADKILKFGGLAIYLGGLGIGTWSTGRVAAGGSPRYTPLRTAGSTSSLASIGSRAVTAGTRPSIGAGIPLDTLETLGALRPGVYEDTVLPEAPAIVTPDAVPADSGLDALSIGTDSSTETLITLLEPEGPEDIAVLELQPLDRPTWQVSNAVHQSSAYHAPLQLQSSIAETSGLENIFVGGSGLGDTGGENIELTYFGSPRTSTPRSIASKSRGILNWFSKRYYTQVPTEDPEVFSSQTFANPLYEAEPAVLKGPSGRVGLSQVYKPDTLTTRSGTEVGPQLHVRYSLSTIHEDVEAIPYTVDENTQGLAFVPLHEEQAGFEEIELDDFSETHRLLPQNTSSTPVGSGVRRSLIPTQEFSATRPTGVVTYGSPDTYSASPVTDPDSTSPSLVIDDTTTTPIIIIDGHTVDLYSSNYTLHPSLLRKRKKRKHA
notes: mature; Expressed from recombinant Semliki Forest virus in BHK-21 or BPHE-1 cells; also called BPV L2

Key:
[1] = molecular target: B2; test: coimmunoprecipitation; cosedimentation in sucrose gradients
[2] = molecular target: T1, bovine papillomavirus type 1 (BPV1) L1 major capsid protein (bovine papillomavirus type 1 (BPV1), UniProt P03103 1-495); test: co-expression from recombinant SFV in BHK-21 cells; heading of the section
T1 construct: mature; Expressed from recombinant Semliki Forest virus in BHK-21 or BPHE-1 cells; self-assembles into VLPs; also called BPV L1

Binder | binding result [1] | binding result [2]
B1 | no binding | –
B2 | – | binds
